Changes are numbered by the printed parent chain. Names may count otherwise.
B1: 12F1F4 chimeric antibody (antibody, V domains shown)
VH: QVQLKESGPGLVAPSQSLSITCTVSGFSLINYGVSWVRQPPGKGLEWLGVIWGDGNTNYQSALRSRLSIRKDTSKSQVFLKLNSVHTDGTATYYCAKVGRGNAMDHWGQGISVIVSS
VL: DIVMTQSPSSLTVTARERVSMTCKSSQSLFNSGNQRNYLTWYQQKPGQPPKLLIYWSSTRESGVPDRFTGSGSGTDFTLTISSVQAEDLAIYFCQNNYYYPFTFGSGTKLEIK
B2: 4F11E2 chimeric antibody (antibody, V domains shown)
VH: DVQLVESGGGLVQPGGSRKLSCAASGFTFSTFGMHWVRQAPEKGLEWVAYITSGNSPIYFTDTVKGRFTISRDNPKNTLFLQMTSLGSEDTAVYYCARSSYYGNSMDYWGQGTSVTVSS
VL: DIVMTQSPSSLTVTAGEKVTLTCRSSQSLLNSGNRKNYLTWYQQIPGQPPKLLIYWASTRESGVPDRFTGSGSGTYFTLTISSVQAEDLAVYYCQNAYSYPFTFGSGTKLEKK
B3: 175D10 (IMAB362; claudiximab) (antibody, V domains shown)
VH: QVQLQQPGAELVRPGASVKLSCKASGYTFTSYWINWVKQRPGQGLEWIGNIYPSDSYTNYNQKFKDKATLTVDKSSSTAYMQLSSPTSEDSAVYYCTRSWRGNSFDYWGQGTTLTVSS
VL: B2 VL with L21M, T22S, R24K, R35Q, I45K, Y76D, A97D, K112I
B4: 103F6D3 chimeric antibody (antibody, V domains shown)
VH: QVQLQQSGAELARPGASVKMSCKASGYTFPTYSIHWLKQGPGQGLEWIGYINPNTIYTNYNQKFKYKTTLTADKSSSTAYIQLSSLTSDDSAVYYCAREGYGRGNAMDYWGQGTSVTVSS
VL: B2 VL with L11Q, T22S, S32G, R35Q, I45K, L79F, S99F, S106A, K112L
B5: 120B7B2 chimeric antibody (antibody, V domains shown)
VH: EVQLQQSGPELVKPGASVKMSCKASGYTFTGYIIQWMKQKPGLGLEWIGFINPYNDGTKYNEQFKGKATLTSDKSSNAAYMELSSLTSEDSAVYYCARAYFGNSFAYWGQGTLVTVSA
VL: DIVMTQSPSSLTVTAGEKVTMSCKSSQSLLNSGNQKNYLTWYQQRPGQPPKLLMYWASTRESGVPDRFTGSGSGTDFTLTISSGQAEDLAIYFCQNGYYFPFTFGSGTKLETK
B6: 78E8G9G6 chimeric antibody (antibody, V domains shown)
VH: QVQLKESGPGLVAPSQSLSITCTVSGFSLISYGVHWVRQPPGKGLEWLGVIWAGGRTNYNSALMSRLSISKDNSKSQVFLKMNSLQTYDTAMYYCARDRYGGNSLDYWGQGTSVTVSS
VL: DIVMTQSPSSLTVTAGEKVTMNCRSIQSLLNSGNQKNYLSWYQQKPGQPPKLLIYWASTRESGVPDRFTGSGSGTDFTLTIRSVLDEDLAVYYCQNSYSYPFTFGSGTKLEMK
B7: 72C1B6A3 chimeric antibody (antibody, V domains shown)
VH: QVQLQQSGGELVKPGASVKMSCKAFGYTFTTYPIEWMKQNHGKSLEWIGNFHPYNDDTKYNEKFKGKAKLTVEKSSSTVYLEVSRLTSDDSAVYYCARRAYGYPYAMDYWGQGTSVTVSS
VL: DIVMTQSPSSLTVTAGEKVTMSCKSSQSLLNSGNQKNYLTWYQQRPGQPPKLLIYRASSRESGVPVRFTGSGSGTDFTLTISSVQAEDLAVYYCQNDYIYPYTFGGGTKLEMN
B8: 64G11B4 chimeric antibody (antibody, V domains shown)
VH: QVQLHQSGTELVRPGTSVKVSCKASGYAFTNYLLEWVKQRPGQGLEWIGEINPGNGGSNYNEKFKGKATLTADKSSSTAYMQLSSLTSVDSAVYFCARIYYGNSFAYWGQGTLVTVSA
VL: DIVMTQSPSSLTVTAGEKVTMNCKSSQSLLNSGNQRNYLTWYQQKPGQPPKLLIYWASTRESGVPDRFTGSGSGTDFTLTISSVQADDLAVYYCQNDYFYPFTFGAGTNLELK
B9: 4F11E2 HC N55Q-LC S32A (humanized, PTM de-risked, No. 2) (antibody, V domains shown)
VH: EVQLVESGGGLVQPGGSLRLSCAASGFTFSTFGMHWVRQAPGKGLEWVSYITSGQSPIYFTDTVKGRFTISRDNAKNSLYLQMNSLRAEDTAVYYCARSSYYGNSMDYWGQGTLVTVSS
VL: DIVMTQSPDSLAVSLGERATINCRSSQSLLNAGNRKNYLTWYQQKPGQPPKLLIYWASTRESGVPDRFSGSGSGTDFTLTISSLQAEDVAVYYCQNAYSYPFTFGGGTKLEIK
B10: 4F11E2 HC N55Q-LC N31E (humanized, PTM de-risked, No. 1) (antibody, V domains shown)
VH: B9 VH
VL: B9 VL with N31E, A32S
B11: 72C1B6A3 HC WT-LC S32A (BG2001-D) (humanized, PTM de-risked, No. 5) (antibody, V domains shown)
VH: QVQLVQSGAEVKKPGASVKVSCKASGYTFTTYPIEWVRQAPGQRLEWMGNFHPYNDDTKYNEKFKGRVTITRDTSASTAYMELSSLRSEDTAVYYCARRAYGYPYAMDYWGQGTLVTVSS
VL: B9 VL with R24K, R35Q, W56R, T59S, A97D, S99I, F102Y
B12: 120B7B2 HC G57D&S104A-LC S32A&G97A (BG2001-E) (humanized, PTM de-risked, No. 7) (antibody, V domains shown)
VH: QVQLVQSGAEVKKPGASVKVSCKASGYTFTGYIIQWVRQAPGQRLEWMGFINPYNDDTKYNEQFKGRVTITRDTSASTAYMELSSLRSEDTAVYYCARAYFGNAFAYWGQGTLVTVSS
VL: B9 VL with R24K, R35Q, S99Y, Y100F
B13: 72C1B6A3 HC WT-LC N31E (humanized, PTM de-risked, No. 4) (antibody, V domains shown)
VH: B11 VH
VL: B9 VL with R24K, N31E, A32S, R35Q, W56R, T59S, A97D, S99I, F102Y
B14: 4F11E2 HC N55E-LC S32A (BG2001-C) (humanized, PTM de-risked, No. 3) (antibody, V domains shown)
VH: B9 VH with Q55E
VL: B9 VL
B15: 120B7B2 HC G57D&S104A-LC-N96E&N31E (humanized, PTM de-risked, No. 6) (antibody, V domains shown)
VH: B12 VH
VL: B9 VL with R24K, N31E, A32S, R35Q, N96E, A97G, S99Y, Y100F
B16: 100F4G12 chimeric antibody (antibody, V domains shown)
VH: EVQLQQSGPELVKPGASVKMSCKASGYTFTGFLMHWVKQKPGQGLEWIGYINPYNDGTKYSERFKGKATLTSDKSSSTAYMELSSLTSDDSAVYYCARLDYGNAMDYWGQGTSVTVSS
VL: DIVMTQSPSSLTVTAGEKVTMRCKSTQSLLNSGNQRNYLTWYQQKPGQSPKLLIYWASTRESGVPERFTGSGSGTDFTLTISSVQAEDLAVYYCQNAYYYPLTFGPGTKLERK
B17: 113E12F7 chimeric antibody (antibody, V domains shown)
VH: QVQLKESGPGLVAPSQSLSITCTVTGFSLSSYGVHWVRQPPGKGLEWLGVIWAGGSTNYDSALMSRLSISKDRSKSQVFLKMTSLQTDDTAMYYCARSLYGNSFDHWGQGTTLTVSS
VL: DIVMTQSPSSLTVTTGEKVTMSCKSSQSLFNSGNQKNYLTWYQQKPGQPPKLLIYWASTRESGVPDRFTGSGSGTYFTLTISSVQAEDLAVYYCQNNYIYPLAFGTGTKLELK
B18: 103H2B4 chimeric antibody (antibody, V domains shown)
VH: QVQLQQPGAEPVKPGASVKLSCKASGYSFTNFLTHWVRQRPGQGLEWIGEINPTNGRTYYNEKFKRKATLTVDKSSTTVYMQLSNLTPEDSAVFYCARIYYGNSMDYWGQGTLVTVSA
VL: B17 VL with V3L, T15A, F30L, P49S, Y76D, I99F, A103T, T106V
B19: 111E7E2 chimeric antibody (antibody, V domains shown)
VH: B17 VH with T25S, S30T, V34A
VL: B17 VL with T15A, Y76D, T106A
B20: 111B12D11 chimeric antibody (antibody, V domains shown)
VH: B17 VH with T25S, S30T, A62T
VL: B17 VL with T15A, S22R, K24R, K36R, Y76D, T106A

Molecular target: human claudin 18.2 (CLDN18.2) (human)
Experiment: cell-based or functional assay

Row | EC50, ADCC Reporter Bioassay (luciferase, Jurkat FcγRIIIa V158/NFAT effector cells) [nM] | Binder
1 | 0.0368 | B1
2 | 0.0222 | B2
3 | 0.459 | B3
4 | 0.0795 | B4
5 | 0.00581 | B5
6 | 0.0159 | B6
7 | 0.0463 | B7
8 | 0.126 | B8

Molecular target: human claudin 18.2 (CLDN18.2) (human)
Experiment: cell-based or functional assay
Remark: another data set of the same source

Row | EC50, ADCC Reporter Bioassay (luciferase) [nM] | Binder
9 | 0.414 | B9
10 | 0.238 | B10
11 | 0.191 | B11
12 | 0.114 | B12
13 | 1.65 | B13
14 | 0.148 | B14
15 | 0.493 | B15
16 | 0.158 | B3

Molecular target: human claudin 18.2 (CLDN18.2) (human)
Experiment: cell-based or functional assay
Remark: another data set of the same source

Row | Fluorescence, pHAb internalization on MKN45-CLDN18.2 cells, 20 nM antibody, normalized by DAR | Fluorescence, pHAb internalization on MKN45-CLDN18.2 cells, 100 nM antibody, normalized by DAR | Binder
17 | 29500 | 43900 | B1
18 | 26200 | 36500 | B11
19 | 19200 | 31300 | B12
20 | 19000 | 28200 | B14
21 | 7950 | 18900 | B3
22 | 23000 | 41300 | B4
23 | 17100 | 33500 | B16
24 | 13200 | 29900 | B17
25 | 26800 | 41100 | B6
26 | 24000 | 33700 | B8
27 | 23500 | 35800 | B18
28 | 12300 | 28000 | B19
29 | 15900 | 37400 | B20
